The assay has as its target DNMT3A^R736S (human) (UniProt Q9Y6K1). Description: SEC + other: negative-stain EM.

The values that follow come from publication doi:10.1101/2023.02.13.528223.

“DNMT3A^R736S (from UniProt Q9Y6K1 1-912) (enzyme)”: the stoichiometry N (usually the number of molecules, sites or subunits per partner or assembly) stood at 2.
